Data as given in the nanobody polyreactivity screen of Harvey et al. (2022).

Test: yeast display, Sf9 membrane polyspecificity reagent, FACS + sequencing; frameworks hold sequencing errors
Method in brief: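 Sorting gates, low and high (top ~1%), were placed on anti-HA fluorescence to track expression and on streptavidin fluorescence to track reagent binding. A clone's polyreactivity label is taken from the gate it came out of. The reagent was 10% biotinylated, detergent-solubilized Sf9 membrane, applied for 1 hour at 4 °C to galactose-induced yeast display cells.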
With “QVQLVESGGGLVQAGGSLRLSCAASGIIFFKYAKGWYRQAPGKEKELVAAITSGGSTYYADSVKGRFTISRDNAKHTVYLQMNSLKPEDTAFYYCAAAGGRFIRYGYWGQGTQVTVSS” the “polyreactivity (PSR sort gate)” value was “high polyreactivity”. For “QVQLVESGGGLVQAGGSLRLSCAASGIIFFKYAMGWYRQAPGKERQLVAAITSGGSTYYADSVKGRFTISRDNEKNTVYLQMNSLKPVDTAVYYCAAAGGRFIRYGYWGQGTQVTVSS”, the “polyreactivity (PSR sort gate)” value was “high polyreactivity”. For “QVQLVESGGGLVQAGGSLRLSCAASGIIFFRNAMGWYRQAPGKERELVAAISSGGSTYYADSVKGRFTISRDNAKNTVYLQMNSLKPEDTAVYYCNKVVPLYYASYDYWGQVTQVTVSS”, the “polyreactivity (PSR sort gate)” value was “low polyreactivity”. With “QVQLVESGGGLVQAGGSLRLSCAASGIIFFRNPMGWYRQAPGKERELVAAISSGGSTYYADSVKGRFTISRDNAKNTVYLQMNSLKPEDTAVYYCNQVGPLYYASYDYWGQGTQGTVSS” the “polyreactivity (PSR sort gate)” value was “low polyreactivity”. With “QVQLVESGGGLVQAGGSLRLSCAASGIIFGDYAMGWYRQAPGKERELVAGISITGDSTYYADSVKGRFTISRDNAKNTVYLQMNSLKPEDTAVSYCAAGWALIFDYWGQGTQVTVSS” the “polyreactivity (PSR sort gate)” value was “low polyreactivity”. For “QVQLVESGGGLVQAGGSLRLSCAASGIIFGEYPMGWYRQAPGKERELVAAISWSGGSTYYADSVKGRFTISRDNAKNTVYLQMNSLKPEDTAVYYCNPLPDIVIGGIIGYDYWGQGTQVTVSS”, the “polyreactivity (PSR sort gate)” value was “high polyreactivity”. For “QVQLVESGGGLVQAGGSLRLSCAASGIIFGFNAMGWYRQAPGKERELVAAINGDDSTYYADSVKGRFTISRDTAKNTVYFQMNSLKPEDTAVYYSAARYYRYLTFTGELLVYYWGQGTQVTVSS”, the “polyreactivity (PSR sort gate)” value was “low polyreactivity”. With “QVQLVESGGGLVQAGGSLRLSCAASGIIFGFNAMGWYRQAPGKETELVAAINGDDSTYYADSVKGRFTISRDNAKNTVYLQMNSLKPEDTAVYYCAARYYRYLTFTGELLVYYWGQGTQVTVSS” the “polyreactivity (PSR sort gate)” value was “low polyreactivity”. With “QVQLVESGGGLVQAGGSLRLSCAASGIIFGFYAMGWYRQAPGKERELVAAITSGGRTDYADSVKGRFTISRDNAKNTVYLQMNSLKPEDTAVYYCAAEFTYYGARWGYLGDLDYWGQGTQVTVSS” the “polyreactivity (PSR sort gate)” value was “high polyreactivity”. For “QVQLVESGGGLVQAGGSLRLSCAASGIIFGGNVMGWYRQAPGKERELVAAISGGGGRTHYADSVKGRFTISRDNAKNTVYLQMNSLKPEDTAVYYCAVVTRYRYDYWGQGTQVTVSS”, the “polyreactivity (PSR sort gate)” value was “high polyreactivity”. In the case of “QVQLVESGGGLVQAGGSLRLSCAASGIIFGIYDMGWYRQAPGKESELVAAIRRSGGSTYYADSVKGRFTISRDNAKNTVYLQMNSLKPEDTAVYYCAATRHSRVRGGDYWGQGTQVTVSS”, the “polyreactivity (PSR sort gate)” value is reported as “low polyreactivity”. With “QVQLVESGGGLVQAGGSLRLSCAASGIIFGKYDMGWYRQAPGKERELVAAITSGTSTNYADSVKGRFTISRDNAKNTVYLQMNSLKPEDTAVYYCAADVYLYYPYFGHRRYNYWGQGTQVTVSS” the “polyreactivity (PSR sort gate)” value was “high polyreactivity”. In the case of “QVQLVESGGGLVQAGGSLRLSCAASGIIFGLNDMGWYRQAPGKERELVADITYSGGSTYYADSVKGRFTISRDNAKNTVYLQMNSLKPEDTAVYYCAADEVSFWGYIYDYWGQGTQVTVSS”, the “polyreactivity (PSR sort gate)” value is reported as “high polyreactivity”. With “QVQLVESGGGLVQAGGSLRLSCAASGIIFGRNAMGWYRPAPGKERELVAVITGGGGRTYYADSVKGRFTISRDNAKKTVYLQMNSLKPEDTAVYYCNKDYRRNLAYFKEPGVPVDYWGQGTQVTVSS” the “polyreactivity (PSR sort gate)” value was “low polyreactivity”. In the case of “QVQLVESGGGLVQAGGSLRLSCAASGIIFGRYAMGWYRQAPGKERELVAAINASGGSTYYADSVKGRFTISRDNAKNTVYLQMNSLKPEDTAVYYCATRSTRSRTSGYYYWGQGTQVTVSS”, the “polyreactivity (PSR sort gate)” value is reported as “high polyreactivity”. For “QVQLVESGGGLVQAGGSLRLSCAASGIIFGRYAMGWYRQAPGKERELVAAISTSGGSTYYADSVKGRFTISRDNAKNTVYLQMNSLKPEDTAVYYCAARHREAQRRYDYWGQGTQVTVSS”, the “polyreactivity (PSR sort gate)” value was “high polyreactivity”. For “QVQLVESGGGLVQAGGSLRLSCAASGIIFGRYTMGWSRQAPGKERELVAAITSSGITYYADSVKGRFTISRDNAKNTVYLQMNSLKPEDTAVYYCIADYSSPGYYWPYDYWGQGTQVTVSS”, the “polyreactivity (PSR sort gate)” value was “low polyreactivity”. For “QVQLVESGGGLVQAGGSLRLSCAASGIIFGRYTMGWYRQAPGKERELVAAITSSGITYYADSVKGRFTISRDNAKNTDYLQMNSLKPEDTAVYYCNADYSIPGYYWPYDYWGQGTQVTVSS”, the “polyreactivity (PSR sort gate)” value was “low polyreactivity”. In the case of “QVQLVESGGGLVQAGGSLRLSCAASGIIFGTNAMGWYRQAPGKERELVAYITSGGSTYADSVKGRFTISRDKAKNTVYLQMNSLKPEDTAVSYCNADTGKWGGNGWYEFDYWGQGTQVTVSS”, the “polyreactivity (PSR sort gate)” value is reported as “low polyreactivity”. In the case of “QVQLVESGGGLVQAGGSLRLSCAASGIIFHPYAMGWYRQAPGKERELVAVITWPGDSTYYADSVKGRFTISRDNAKNTVYLQMNSLKPEDTAVYYCNAAVEGSLNGYEYWGQGTQVTVSS”, the “polyreactivity (PSR sort gate)” value is reported as “low polyreactivity”. In the case of “QVQLVESGGGLVQAGGSLRLSCAASGIIFHYYAMGWYRQAPGKERDLVAAISGSGGSTYYADSVKGRFTISRDNAKNTVFLQMNSLKPEDTAVYYCAAILWGGGGYWGQGTQVTVSS”, the “polyreactivity (PSR sort gate)” value is reported as “high polyreactivity”. In the case of “QVQLVESGGGLVQAGGSLRLSCAASGIIFIAYAMGWYRQAPGKERELVADISIGGSTNYADSVKGRFTISRDNAKNTVYLQMNSQKPEDTAVYYCNAGGGFYGSTVEHDYWGQGTQVTVSS”, the “polyreactivity (PSR sort gate)” value is reported as “low polyreactivity”. In the case of “QVQLVESGGGLVQAGGSLRLSCAASGIIFIFYDMGWYRQAPGKERELVATITSGTNTDADSVKGRFTISRDNAKNTVYLQMNSLKPEDTAVYYCAAGFSPASQLDYWGQGTQVTVSS”, the “polyreactivity (PSR sort gate)” value is reported as “low polyreactivity”. In the case of “QVQLVESGGGLVQAGGSLRLSCAASGIIFIGNAMGWYRQAPGKERELVAAITYTGGSTYYADSVKGRFTISRDNAKNTVYLQMNSLKPEDTAVYYCAVDRTHLEDDYWGQGTQVTVSS”, the “polyreactivity (PSR sort gate)” value is reported as “low polyreactivity”. For “QVQLVESGGGLVQAGGSLRLSCAASGIIFIKYAMGWYRQAPGKERELVAAITSGGSTHYADSVKGRFTISRDNAKNTVYLQMNSLKPEDTAVYYCNADILRHVAYFKDRYQAGSYWGQGTQVTVSS”, the “polyreactivity (PSR sort gate)” value was “low polyreactivity”. For “QVQLVESGGGLVQAGGSLRLSCAASGIIFITYAMGWYRQAPGKERELVAAITNSGGGTYYADSVKGRFTNSRDNAKNTVYLQMNSLKPEDTAVYYCAARKTAYGYRYDYWGQGTQVTVSS”, the “polyreactivity (PSR sort gate)” value was “high polyreactivity”. In the case of “QVQLVESGGGLVQAGGSLRLSCAASGIIFIYYDMGWYRQAPGKERELVAAISRSGGSTYYADSVKGRFTISRDIAKNTFYLQMNSLKPEDTAVYYCAARRITSTDEYYWGHGTQVTVSS”, the “polyreactivity (PSR sort gate)” value is reported as “high polyreactivity”. With “QVQLVESGGGLVQAGGSLRLSCAASGIIFIYYTMGWYRQSPGKERELVAVITTSGDGTYYADSVKGRFTISRDNAKNTVYLQMNSLKPEDTAVYYCAASYSTWVSTRNDYWGQGTQVTVSS” the “polyreactivity (PSR sort gate)” value was “low polyreactivity”. For “QVQLVESGGGLVQAGGSLRLSCAASGIIFKGYDMGWYRQAPGKERELVAAISSGSTNYADSVKGRFTISRDNAKNTVYLQMNSLKPEDTAVYYCNKDSISYTWGYDYWGQGTQVTVSS”, the “polyreactivity (PSR sort gate)” value was “low polyreactivity”. With “QVQLVESGGGLVQAGGSLRLSCAASGIIFKLNAMGWYRQAPGKEREFVAAITRRGGITFYADSVKGRFTISRDNAKNTVYLQMNSLKPEDTAVYYCAASPGRRRRPYASLIRYDYWGQGTQVTVSS” the “polyreactivity (PSR sort gate)” value was “high polyreactivity”. With “QVQLVESGGGLVQAGGSLRLSCAASGIIFKNYAMGWYRQAPGKERELVAAISWRGGRTYYADSVKGRFTISRDNAKNTVYLQMNSLIPEDTAVYYCAKELYVSYRGGPWVDYWGQGTQVTVSS” the “polyreactivity (PSR sort gate)” value was “high polyreactivity”. For “QVQLVESGGGLVQAGGSLRLSCAASGIIFKQNVMGWYRQAPGKERELVAAITSRDGSTYYADSVKGRFTISRDNAKNTVYLQMNSLKPEDTAVYYCAAKWRSPRYYLYGYWGQGTQVTVSS”, the “polyreactivity (PSR sort gate)” value was “high polyreactivity”. In the case of “QVQLVESGGGLVQAGGSLRLSCAASGIIFKSYTMGWYRQAPGKERELVAAINSSGDRTYYADSVKGRFTISRDNAKNTVYLQMNSLKPEDTAVDYCAAAPVKKSRFRYDYWGQGTQVTVSS”, the “polyreactivity (PSR sort gate)” value is reported as “high polyreactivity”. With “QVQLVESGGGLVQAGGSLRLSCAASGIIFKYYAMGWSRQAPGKERELVAAISWTGDSTYADSVKGRFTISRDNAKNTVYLQMNSLKPEDTAVYYCAVAFRRVRSLGEGYWGQGTQVTVSS” the “polyreactivity (PSR sort gate)” value was “low polyreactivity”. For “QVQLVESGGGLVQAGGSLRLSCAASGIIFLDYVMGWYRQAPGKERELVAAINSGGSTYYADSVKGRFTISRDNAKNTVYLQMNSLKPEDTAVYYCAADDYYKFDYWGQGTQVTVSS”, the “polyreactivity (PSR sort gate)” value was “low polyreactivity”. In the case of “QVQLVESGGGLVQAGGSLRLSCAASGIIFLNYAMGWYRQAPGKERELDAGITGRGGITYYTDSVKGRFTISRDNAKNTVYLQMNSLKPEDTAVYYCAARRYRFAGDYRMYYWGQGTQVTVSS”, the “polyreactivity (PSR sort gate)” value is reported as “high polyreactivity”. With “QVQLVESGGGLVQAGGSLRLSCAASGIIFLWYAMGWYRQAPGKERELVAAITSGGSTYYADSVKGRFTISRDNAKNTVYLQMNSLKPEDTAVYYCAAVNGWRRVKRFDYWGQGTQVTVSS” the “polyreactivity (PSR sort gate)” value was “high polyreactivity”. For “QVQLVESGGGLVQAGGSLRLSCAASGIIFNPYALGWYRHAPGKERELVATISRGGRTNYADSVKGRFTISRDNAKNTVYLQLHSLKPEDTAVYYCNKTASGRYHYDYWGQGTQVTVSS”, the “polyreactivity (PSR sort gate)” value was “low polyreactivity”. With “QVQLVESGGGLVQAGGSLRLSCAASGIIFNSNAMGWYRQAPGKERELVAAISVSGGSTYYADSVKGRFTISRDNAKNTVYLQMYSLIPEDTAVYYCNARSLYPWRWKKEYGHWGQGTQVTVSS” the “polyreactivity (PSR sort gate)” value was “high polyreactivity”. In the case of “QVQLVESGGGLVQAGGSLRLSCAASGIIFNSYSMGLYRHAPGKERELVAAITYSGTRTYYADSVKGRFTISRDNAKNTVYLQMNCLKPEDTAVYYCNAVTGRGRTITQYDSWGQGTQVTVSS”, the “polyreactivity (PSR sort gate)” value is reported as “high polyreactivity”. In the case of “QVQLVESGGGLVQAGGSLRLSCAASGIIFNTYAMGWYRQAPGKERELVAAIDSRDASTYADSVKGRFTISRDNAKNTVYLQMNSLKPEDTAVYYCAATHIVDLISEVYYWGQGTQVTVSS”, the “polyreactivity (PSR sort gate)” value is reported as “low polyreactivity”. For “QVQLVESGGGLVQAGGSLRLSCAASGIIFNTYAMGWYRQAPGKERELVAAIDSRDASTYADSVKGRFTISRDNAKNTVYVQMNSLKPEDTAVYYCNARIESYWLDFDYWGQGTQVTVSS”, the “polyreactivity (PSR sort gate)” value was “low polyreactivity”. In the case of “QVQLVESGGGLVQAGGSLRLSCAASGIIFPFYAMGWYRQAPGKEREFVAAITSGDDTYYADSVKGRFTISRDNAKNTVYLQMNSLKPEDTAVYYCNKRLYIAGYWPQLYYIMDYWGQGTQVTVSS”, the “polyreactivity (PSR sort gate)” value is reported as “low polyreactivity”.
